pIC50, pKd: −log10 of the molar value. Blank lines part the entries; values can stand above or below the sequence they belong to.
Experiments:
HLA-B*73:01 = experiment: IEDB peptide-MHC binding, purified MHC/direct/fluorescence; filed as Kd, often an IC50 or EC50 that approximates it; ≥ and ≤ were set here for values at or beyond the usual limits of such assays; conditions: source organism: Homo sapiens
HLA-C*07:02 = experiment: as above; conditions: source organism: Homo sapiens
HLA-A*01:01 = experiment: as above
HLA-A*02:01 = experiment: as above
HLA-A*03:01 = experiment: as above; conditions: source organism: Mycobacterium tuberculosis
HLA-A*11:01 = experiment: as above
HLA-A*31:01 = experiment: as above
HLA-A*69:01 = experiment: as above
HLA-B*07:02 = experiment: as above
HLA-B*15:01 = experiment: as above; conditions: source organism: Mycobacterium tuberculosis
HLA-B*15:17 = experiment: as above
HLA-B*18:01 = experiment: as above
HLA-B*27:05 = experiment: as above
HLA-B*38:01 = experiment: as above; conditions: source organism: Mycobacterium tuberculosis str. Haarlem
HLA-B*40:01 = experiment: as above
HLA-B*46:01 = experiment: as above; conditions: source organism: Mycobacterium tuberculosis
HLA-B*48:01 [1] = experiment: as above
HLA-B*51:01 = experiment: as above; conditions: source organism: Mycobacterium tuberculosis
HLA-B*57:01 = experiment: as above
HLA-B*58:01 = experiment: as above
HLA-B*15:09 = experiment: IEDB peptide-MHC binding, purified MHC/competitive/fluorescence; filed as Kd, often an IC50 or EC50 that approximates it; ≥ and ≤ were set here for values at or beyond the usual limits of such assays
HLA-B*39:01 = experiment: as above; conditions: source organism: Mycobacterium tuberculosis variant bovis BCG str. Pasteur 1173P2
HLA-C*15:02 = experiment: IEDB peptide-MHC binding, purified MHC/direct/fluorescence; filed as Kd, often an IC50 or EC50 that approximates it; ≥ and ≤ were set here for values at or beyond the usual limits of such assays; conditions: source organism: Vibrio vulnificus CMCP6
HLA-B*48:01 [2] = experiment: IEDB peptide-MHC binding, purified MHC/competitive/fluorescence; filed as Kd, often an IC50 or EC50 that approximates it; ≥ and ≤ were set here for values at or beyond the usual limits of such assays; conditions: source organism: Vibrio vulnificus CMCP6
HLA-B*40:02 = experiment: IEDB peptide-MHC binding, cellular MHC/competitive/fluorescence; ≥ and ≤ were set here for values at or beyond the usual limits of such assays; conditions: source organism: Homo sapiens
HLA-A*26:01 = experiment: IEDB peptide-MHC binding, purified MHC/direct/fluorescence; filed as Kd, often an IC50 or EC50 that approximates it; ≥ and ≤ were set here for values at or beyond the usual limits of such assays; conditions: source organism: Ravn virus - Ravn, Kenya, 1987
HLA-A*68:02 = experiment: as above; conditions: source organism: Marburg virus - Musoke, Kenya, 1980
HLA-B*08:01 = experiment: as above; conditions: source organism: Ravn virus - Ravn, Kenya, 1987
HLA-B*44:02 = experiment: as above; conditions: source organism: Marburg virus - Musoke, Kenya, 1980
[3] = source organism: Mycobacterium tuberculosis
[4] = source organism: Marburg virus - Musoke, Kenya, 1980

pKd (HLA-B*73:01): ≤ 4.70
pKd (HLA-C*07:02): 5.64
Sequence: FPLWWVSSI

Sequence: GPASLPTAL
pKd (HLA-A*01:01; [3]): ≤ 4.70
pKd (HLA-A*02:01; [3]): ≤ 4.70
pKd (HLA-A*03:01): ≤ 4.70
pKd (HLA-A*11:01; [3]): ≤ 4.70
pKd (HLA-A*31:01; [3]): ≤ 4.70
pKd (HLA-A*69:01; [3]): 5.91
pKd (HLA-B*07:02; [3]): 7.38
pKd (HLA-B*15:01): ≤ 4.70
pKd (HLA-B*15:17; [3]): ≤ 4.70
pKd (HLA-B*18:01; [3]): ≤ 4.70
pKd (HLA-B*27:05; [3]): ≤ 4.70
pKd (HLA-B*38:01): ≤ 4.70
pKd (HLA-B*40:01; [3]): ≤ 4.70
pKd (HLA-B*46:01): ≤ 4.70
pKd (HLA-B*48:01 [1]; [3]): 5.55
pKd (HLA-B*51:01): ≤ 4.70
pKd (HLA-B*57:01; [3]): ≤ 4.70
pKd (HLA-B*58:01; [3]): ≤ 4.70
pKd (HLA-B*15:09; source organism: Mycobacterium tuberculosis variant bovis BCG str. Pasteur 1173P2): ≤ 4.70
pKd (HLA-B*39:01): 6.17

Sequence: RIHDIAVQL
pKd (HLA-C*15:02): 6.71
pKd (HLA-B*48:01 [2]): 6.95

pIC50 (HLA-B*40:02): 5.85
Sequence: SEFSDVDKL

Sequence: AEILSGRVI
pKd (HLA-A*01:01; [4]): ≤ 4.70
pKd (HLA-A*02:01; [4]): ≤ 4.70
pKd (HLA-A*11:01; [4]): ≤ 4.70
pKd (HLA-A*26:01): ≤ 4.70
pKd (HLA-A*31:01; [4]): ≤ 4.70
pKd (HLA-A*68:02): ≤ 4.70
pKd (HLA-A*69:01; [4]): ≤ 4.70
pKd (HLA-B*07:02; [4]): ≤ 4.70
pKd (HLA-B*08:01): ≤ 4.70
pKd (HLA-B*15:17; [4]): ≤ 4.70
pKd (HLA-B*18:01; [4]): 4.78
pKd (HLA-B*27:05; [4]): ≤ 4.70
pKd (HLA-B*40:01; [4]): 8.26
pKd (HLA-B*44:02): ≤ 4.68
pKd (HLA-B*48:01 [1]; [4]): ≤ 4.70
pKd (HLA-B*57:01; [4]): ≤ 4.70
pKd (HLA-B*58:01; [4]): ≤ 4.70
pKd (HLA-B*15:09; source organism: Orthomarburgvirus marburgense): ≤ 4.70
